Reference: the Human Domainome abundance scans (Beltran et al. 2025)
± gives the uncertainty stated by the source.

B1: POU domain, class 5, transcription factor 1, residues 134 to 212; numbered along this chain, Q01860 (parent)
chain: EESQDIKALQKELEQFAKLLKQKRITLGYTQADVGLTLGVLFGKVFSQTTICRFEALQLSFKNMCKLRPLLQKWVEEAD

Variants of: B1
Assay: abundance fitness (aPCA) (normalised: wild type 0, dead -1); higher = more abundant; growth selection in yeast, the domain comes from the species named
Details: Homo sapiens
EESQDIKQLQKELEQFAKLLKQKRITLGYTQADVGLTLGVLFGKVFSQTTICRFEALQLSFKNMCKLRPLLQKWVEEAD [A8Q] gave an abundance fitness of 0.182 ± 0.3. EESQDIKSLQKELEQFAKLLKQKRITLGYTQADVGLTLGVLFGKVFSQTTICRFEALQLSFKNMCKLRPLLQKWVEEAD [A8S] gave an abundance fitness of 0.171 ± 0.21. For EESQDIKTLQKELEQFAKLLKQKRITLGYTQADVGLTLGVLFGKVFSQTTICRFEALQLSFKNMCKLRPLLQKWVEEAD [A8T], the abundance fitness was 0.429 ± 0.3. Work on EESQDIKVLQKELEQFAKLLKQKRITLGYTQADVGLTLGVLFGKVFSQTTICRFEALQLSFKNMCKLRPLLQKWVEEAD [A8V] yielded an abundance fitness of 0.083 ± 0.25. In the case of EESQDIKAAQKELEQFAKLLKQKRITLGYTQADVGLTLGVLFGKVFSQTTICRFEALQLSFKNMCKLRPLLQKWVEEAD [L9A], the abundance fitness is reported as -0.066 ± 0.088. EESQDIKACQKELEQFAKLLKQKRITLGYTQADVGLTLGVLFGKVFSQTTICRFEALQLSFKNMCKLRPLLQKWVEEAD [L9C] gave an abundance fitness of -0.123 ± 0.13. For EESQDIKADQKELEQFAKLLKQKRITLGYTQADVGLTLGVLFGKVFSQTTICRFEALQLSFKNMCKLRPLLQKWVEEAD [L9D], the abundance fitness was -0.385 ± 0.2. In the case of EESQDIKAEQKELEQFAKLLKQKRITLGYTQADVGLTLGVLFGKVFSQTTICRFEALQLSFKNMCKLRPLLQKWVEEAD [L9E], the abundance fitness is reported as 0.017 ± 0.089. For EESQDIKAFQKELEQFAKLLKQKRITLGYTQADVGLTLGVLFGKVFSQTTICRFEALQLSFKNMCKLRPLLQKWVEEAD [L9F], the abundance fitness was -0.316 ± 0.29. For EESQDIKAGQKELEQFAKLLKQKRITLGYTQADVGLTLGVLFGKVFSQTTICRFEALQLSFKNMCKLRPLLQKWVEEAD [L9G], the abundance fitness was -0.127 ± 0.07. Variant EESQDIKAHQKELEQFAKLLKQKRITLGYTQADVGLTLGVLFGKVFSQTTICRFEALQLSFKNMCKLRPLLQKWVEEAD [L9H] has an abundance fitness of -0.215 ± 0.32. In the case of EESQDIKAIQKELEQFAKLLKQKRITLGYTQADVGLTLGVLFGKVFSQTTICRFEALQLSFKNMCKLRPLLQKWVEEAD [L9I], the abundance fitness is reported as -0.331 ± 0.4. EESQDIKAKQKELEQFAKLLKQKRITLGYTQADVGLTLGVLFGKVFSQTTICRFEALQLSFKNMCKLRPLLQKWVEEAD [L9K] showed an abundance fitness of 0.28 ± 0.11. EESQDIKANQKELEQFAKLLKQKRITLGYTQADVGLTLGVLFGKVFSQTTICRFEALQLSFKNMCKLRPLLQKWVEEAD [L9N] gave an abundance fitness of -0.086 ± 0.22. EESQDIKAPQKELEQFAKLLKQKRITLGYTQADVGLTLGVLFGKVFSQTTICRFEALQLSFKNMCKLRPLLQKWVEEAD [L9P] showed an abundance fitness of 0.195 ± 0.12. EESQDIKAQQKELEQFAKLLKQKRITLGYTQADVGLTLGVLFGKVFSQTTICRFEALQLSFKNMCKLRPLLQKWVEEAD [L9Q] gave an abundance fitness of 0.106 ± 0.12. Variant EESQDIKARQKELEQFAKLLKQKRITLGYTQADVGLTLGVLFGKVFSQTTICRFEALQLSFKNMCKLRPLLQKWVEEAD [L9R] has an abundance fitness of -0.023 ± 0.067. In the case of EESQDIKASQKELEQFAKLLKQKRITLGYTQADVGLTLGVLFGKVFSQTTICRFEALQLSFKNMCKLRPLLQKWVEEAD [L9S], the abundance fitness is reported as 0.136 ± 0.078. Variant EESQDIKATQKELEQFAKLLKQKRITLGYTQADVGLTLGVLFGKVFSQTTICRFEALQLSFKNMCKLRPLLQKWVEEAD [L9T] has an abundance fitness of -0.171 ± 0.18. EESQDIKAVQKELEQFAKLLKQKRITLGYTQADVGLTLGVLFGKVFSQTTICRFEALQLSFKNMCKLRPLLQKWVEEAD [L9V] showed an abundance fitness of 0.044 ± 0.076. Work on EESQDIKAWQKELEQFAKLLKQKRITLGYTQADVGLTLGVLFGKVFSQTTICRFEALQLSFKNMCKLRPLLQKWVEEAD [L9W] yielded an abundance fitness of -0.254 ± 0.087. For EESQDIKAYQKELEQFAKLLKQKRITLGYTQADVGLTLGVLFGKVFSQTTICRFEALQLSFKNMCKLRPLLQKWVEEAD [L9Y], the abundance fitness was -0.164 ± 0.24. With EESQDIKALAKELEQFAKLLKQKRITLGYTQADVGLTLGVLFGKVFSQTTICRFEALQLSFKNMCKLRPLLQKWVEEAD [Q10A] the abundance fitness was -0.169 ± 0.12. EESQDIKALCKELEQFAKLLKQKRITLGYTQADVGLTLGVLFGKVFSQTTICRFEALQLSFKNMCKLRPLLQKWVEEAD [Q10C] gave an abundance fitness of -0.477 ± 0.29. EESQDIKALDKELEQFAKLLKQKRITLGYTQADVGLTLGVLFGKVFSQTTICRFEALQLSFKNMCKLRPLLQKWVEEAD [Q10D] showed an abundance fitness of -0.128 ± 0.18. Variant EESQDIKALEKELEQFAKLLKQKRITLGYTQADVGLTLGVLFGKVFSQTTICRFEALQLSFKNMCKLRPLLQKWVEEAD [Q10E] has an abundance fitness of -0.354 ± 0.16. EESQDIKALFKELEQFAKLLKQKRITLGYTQADVGLTLGVLFGKVFSQTTICRFEALQLSFKNMCKLRPLLQKWVEEAD [Q10F] showed an abundance fitness of 0.117 ± 0.32. Variant EESQDIKALGKELEQFAKLLKQKRITLGYTQADVGLTLGVLFGKVFSQTTICRFEALQLSFKNMCKLRPLLQKWVEEAD [Q10G] has an abundance fitness of -0.239 ± 0.082. Variant EESQDIKALHKELEQFAKLLKQKRITLGYTQADVGLTLGVLFGKVFSQTTICRFEALQLSFKNMCKLRPLLQKWVEEAD [Q10H] has an abundance fitness of -0.31 ± 0.49. Variant EESQDIKALIKELEQFAKLLKQKRITLGYTQADVGLTLGVLFGKVFSQTTICRFEALQLSFKNMCKLRPLLQKWVEEAD [Q10I] has an abundance fitness of -0.373 ± 0.34. In the case of EESQDIKALLKELEQFAKLLKQKRITLGYTQADVGLTLGVLFGKVFSQTTICRFEALQLSFKNMCKLRPLLQKWVEEAD [Q10L], the abundance fitness is reported as -0.214 ± 0.11. With EESQDIKALMKELEQFAKLLKQKRITLGYTQADVGLTLGVLFGKVFSQTTICRFEALQLSFKNMCKLRPLLQKWVEEAD [Q10M] the abundance fitness was -0.063 ± 0.16. In the case of EESQDIKALNKELEQFAKLLKQKRITLGYTQADVGLTLGVLFGKVFSQTTICRFEALQLSFKNMCKLRPLLQKWVEEAD [Q10N], the abundance fitness is reported as -0.086 ± 0.24. In the case of EESQDIKALPKELEQFAKLLKQKRITLGYTQADVGLTLGVLFGKVFSQTTICRFEALQLSFKNMCKLRPLLQKWVEEAD [Q10P], the abundance fitness is reported as -0.214 ± 0.17.
